Measured values: patent US20240301038A1

Biological target: SARS-CoV-2 Spike Receptor Binding Domain (RBD) (Sino Biological) (SARS-CoV-2), P0DTC2
Conditions: remark: other sources report otherwise

B1: AB-009620 (antibody, V domains shown)
VH: QITLKESGPTLVKPTQTLTLTCTFSGFSLSTSGVGVGWIRQPPGKALEWLALIYWDDDKRYSPSLKSRLTITKDTSKNQVVLTMTNMDPVDTATYYCAHHEVATVFDYWGQGTLVTVSS
VL: QSALTQPASVSGSPGQSITISCTGTSSDVGAYNYVSWYQQHPGKAPKLMIYEVSNRPSGVSNRFSGSKSGNTASLTISGLQAEDEADYYCSSYTSSSTVFGGGTKLTVL
Kd: 5.99 nM
